The subject of data set [1] is FoxP1 FKH domain (human). The experiment in a line: fluorescence anisotropy. The following applies: 200 nM labeled DNA, protein 0-500 nM; 'standard buffer' (composition, salt and pH not in material); dimerization assays at 37 C, DNA-binding temperature not stated; ex 480 nm, em 525 nm.
The test system of data set [2] is FoxP1 ZIP-lin-FKH (human). In words: fluorescence anisotropy. The following applies: 200 nM labeled DNA, protein 0-500 nM; 'standard buffer' (composition, salt and pH not in material); dimerization assays at 37 C, DNA-binding temperature not stated; ex 480 nm, em 525 nm.
In data set [3] the target is FoxP1 ZIP-lin (leucine zipper domain with the linker, residues 342-462), unlabeled wild type (human) (UniProt Q9H334). In words: SEC; Superdex 75 increase, 20 mM HEPES pH 7.8, 150 mM NaCl; unlabeled protein at 10 µM; molecular weight from a calibration curve with known proteins.
Data set [4] addresses FoxP1 ZIP(A356C)-lin labeled with BODIPY FL (human) (UniProt Q9H334). The experiment in a line: fluorescence polarisation; fluorescence anisotropy; 5 nM BODIPY FL-labeled single-cysteine protein titrated with its unlabeled wild-type construct (0-5000 nM ZIP-lin, 0-200 nM ZIP-lin-FKH), 37 °C; two-state model, monomer-dimer equilibrium; duplicates.
In data set [5] the target is FoxP1 ZIP-lin-FKH (leucine zipper, linker and Forkhead domain, residues 342-548), unlabeled wild type (human) (UniProt Q9H334). In words: SEC; Superdex 75 increase, 20 mM HEPES pH 7.8, 150 mM NaCl; unlabeled protein at 10 µM; molecular weight from a calibration curve with known proteins.
Data set [6] concerns the target FoxP1 ZIP(A356C)-lin-FKH labeled with BODIPY FL (human) (UniProt Q9H334). In words: fluorescence polarisation; fluorescence anisotropy; 5 nM BODIPY FL-labeled single-cysteine protein titrated with its unlabeled wild-type construct (0-5000 nM ZIP-lin, 0-200 nM ZIP-lin-FKH), 37 °C; two-state model, monomer-dimer equilibrium; duplicates.
The target is the same in data set [7]. The experiment in a line: fluorescence polarisation; fluorescence anisotropy; 5 nM labeled monomer preincubated with 10 nM unlabeled DNA, then titrated with unlabeled wild-type ZIP-lin-FKH that was previously denatured to ensure the monomeric form; apparent KD; monomer-dimer equilibrium.

For the substance FoxP1 FKH cognate DNA, Alexa488-labeled, the Kd was 176 nM in data set [1] and 170 nM in data set [2].
Take “FoxP1 ZIP-lin (leucine zipper domain with the linker, residues 342-462), unlabeled wild type (from UniProt Q9H334 342-462) (domain or fragment)”: the stoichiometry N in data set [3] was 2. This substance registered a Kd in data set [4] of 123 nM.
“FoxP1 ZIP-lin-FKH (leucine zipper, linker and Forkhead domain, residues 342-548), unlabeled wild type (from UniProt Q9H334 342-548) (domain or fragment)” registered a stoichiometry N in data set [5] of 2. The Kd stood at 29 nM in data set [6] and 55 nM in data set [7].

The record behind these values is publication PMC10188207.
